Legend:
Assay in all cases: holdup assay
Parameters in all cases: key: below the threshold = too weak to quantify, mostly under pKd 3.1 to 4
SIPA1L2, Q9P2F8 = molecular target: T1, SIPA1L2, Q9P2F8
T1 sequence (Q9P2F8 945-1036, limits assumed, looked up): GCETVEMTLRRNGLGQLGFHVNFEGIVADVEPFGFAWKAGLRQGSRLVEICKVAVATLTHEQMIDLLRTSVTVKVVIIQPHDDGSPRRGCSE

GRIP1_5, Q9Y3R0 = molecular target: T2, GRIP1_5, Q9Y3R0
T2 sequence (Q9Y3R0 568-668, limits assumed, looked up): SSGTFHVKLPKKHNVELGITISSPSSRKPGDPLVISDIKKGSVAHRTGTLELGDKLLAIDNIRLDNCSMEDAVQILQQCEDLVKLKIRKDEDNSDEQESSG

NHERF3_1, Q5T2W1 = molecular target: T3, NHERF3_1, Q5T2W1
T3 sequence (Q5T2W1 4-100, limits assumed, looked up): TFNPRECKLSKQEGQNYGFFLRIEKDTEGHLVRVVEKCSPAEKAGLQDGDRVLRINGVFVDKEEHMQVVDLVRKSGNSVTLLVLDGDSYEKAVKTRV

Inadl_1, Q8NI35 = molecular target: Inadl_1, Q8NI35
Inadl_2, Q8NI35 = molecular target: Inadl_2, Q8NI35
DLG2_2, Q15700 = molecular target: DLG2_2, Q15700
PDLIM1, O00151 = molecular target: PDLIM1, O00151
IL16_3, Q14005 = molecular target: IL16_3, Q14005
SCRIB_2, Q14160 = molecular target: SCRIB_2, Q14160
NHERF2_2, Q15599 = molecular target: NHERF2_2, Q15599
DLG2_3, Q15700 = molecular target: DLG2_3, Q15700
APBA3_1, O96018 = molecular target: T4, APBA3_1, O96018
T4 sequence (O96018 389-490, limits assumed, looked up): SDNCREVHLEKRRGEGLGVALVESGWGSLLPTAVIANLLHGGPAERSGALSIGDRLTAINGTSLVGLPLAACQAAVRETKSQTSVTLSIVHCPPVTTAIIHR

DLG4_1, P78352 = molecular target: DLG4_1, P78352
GRIP1_4, Q9Y3R0 = molecular target: T5, GRIP1_4, Q9Y3R0
T5 sequence (Q9Y3R0 467-571, limits assumed, looked up): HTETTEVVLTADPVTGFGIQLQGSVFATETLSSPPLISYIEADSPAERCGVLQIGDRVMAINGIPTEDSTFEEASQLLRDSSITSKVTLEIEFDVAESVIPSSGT

LAP2, Q96RT1 = molecular target: LAP2, Q96RT1
TIAM2, Q8IVF5 = molecular target: T6, TIAM2, Q8IVF5
T6 sequence (Q8IVF5 885-986, limits assumed, looked up): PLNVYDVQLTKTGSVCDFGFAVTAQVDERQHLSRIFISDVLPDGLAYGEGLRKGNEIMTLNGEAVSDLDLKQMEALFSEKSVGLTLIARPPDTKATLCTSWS

Inadl_8, Q8NI35 = molecular target: Inadl_8, Q8NI35
DVL3, Q92997 = molecular target: T7, DVL3, Q92997
T7 sequence (Q92997 244-331, limits assumed, looked up): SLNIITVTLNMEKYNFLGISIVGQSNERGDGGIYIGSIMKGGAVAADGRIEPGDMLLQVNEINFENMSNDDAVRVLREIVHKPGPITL

LIN7C, Q9NUP9 = molecular target: T8, LIN7C, Q9NUP9
T8 sequence (Q9NUP9 88-185, limits assumed, looked up): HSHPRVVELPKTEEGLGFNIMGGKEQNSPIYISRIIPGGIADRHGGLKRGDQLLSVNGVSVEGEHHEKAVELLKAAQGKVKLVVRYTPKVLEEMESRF

GRIP2_5, Q9C0E4 = molecular target: GRIP2_5, Q9C0E4
MAGI1_1, Q96QZ7 = molecular target: MAGI1_1, Q96QZ7
MAGI3_2, Q5TCQ9 = molecular target: MAGI3_2, Q5TCQ9
MPDZ_5, O75970 = molecular target: T9, MPDZ_5, O75970
T9 sequence (O75970 695-796, limits assumed, looked up): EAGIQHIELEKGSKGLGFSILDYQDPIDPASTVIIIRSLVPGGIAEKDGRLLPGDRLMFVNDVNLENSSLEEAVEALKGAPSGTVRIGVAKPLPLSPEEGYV

GRIP1_3, Q9Y3R0 = molecular target: T10, GRIP1_3, Q9Y3R0
T10 sequence (Q9Y3R0 247-346, limits assumed, looked up): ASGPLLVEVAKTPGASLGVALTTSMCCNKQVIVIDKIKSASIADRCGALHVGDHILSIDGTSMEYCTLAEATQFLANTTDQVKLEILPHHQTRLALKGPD

MPDZ_12, O75970 = molecular target: T11, MPDZ_12, O75970
T11 sequence (O75970 1857-1958, limits assumed, looked up): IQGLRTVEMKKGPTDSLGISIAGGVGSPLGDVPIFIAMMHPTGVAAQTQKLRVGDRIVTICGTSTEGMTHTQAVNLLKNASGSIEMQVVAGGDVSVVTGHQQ

GRIP2_4, Q9C0E4 = molecular target: GRIP2_4, Q9C0E4
[1] = plain residues with an end cap or a label only (N-terminal biotin on a linker: ahx)
[2] = plain residues with an end cap or a label only (N-terminal biotin on a linker: ttds)

Chain of Inadl_1, Q8NI35 (Q8NI35 113-229): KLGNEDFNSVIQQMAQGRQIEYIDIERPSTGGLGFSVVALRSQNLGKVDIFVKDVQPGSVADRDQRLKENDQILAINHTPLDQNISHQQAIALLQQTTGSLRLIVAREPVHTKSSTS
Chain of Inadl_8, Q8NI35 (Q8NI35 1425-1530): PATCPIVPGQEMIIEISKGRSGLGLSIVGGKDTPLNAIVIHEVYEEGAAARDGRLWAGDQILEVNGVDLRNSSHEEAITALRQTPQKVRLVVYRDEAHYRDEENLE
Chain of GRIP2_4, Q9C0E4 (Q9C0E4 446-548): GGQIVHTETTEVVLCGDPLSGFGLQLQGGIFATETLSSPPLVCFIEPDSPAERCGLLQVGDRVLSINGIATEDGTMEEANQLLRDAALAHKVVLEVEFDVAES
Chain of MAGI3_2, Q5TCQ9 (Q5TCQ9 398-503): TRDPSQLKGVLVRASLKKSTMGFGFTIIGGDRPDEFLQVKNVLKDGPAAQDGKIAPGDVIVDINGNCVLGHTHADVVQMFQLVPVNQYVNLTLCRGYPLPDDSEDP
Chain of IL16_3, Q14005 (Q14005 1107-1207): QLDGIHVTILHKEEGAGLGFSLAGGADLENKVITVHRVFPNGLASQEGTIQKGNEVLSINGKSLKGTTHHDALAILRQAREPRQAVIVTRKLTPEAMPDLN
Chain of PDLIM1, O00151 (O00151 1-87): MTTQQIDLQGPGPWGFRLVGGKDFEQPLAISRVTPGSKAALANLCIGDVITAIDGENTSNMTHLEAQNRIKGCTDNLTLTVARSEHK
Chain of Inadl_2, Q8NI35 (Q8NI35 238-335): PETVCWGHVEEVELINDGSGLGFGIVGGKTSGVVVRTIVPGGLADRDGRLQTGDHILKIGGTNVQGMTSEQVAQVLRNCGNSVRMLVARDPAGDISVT
Chain of DLG4_1, P78352 (P78352 62-152): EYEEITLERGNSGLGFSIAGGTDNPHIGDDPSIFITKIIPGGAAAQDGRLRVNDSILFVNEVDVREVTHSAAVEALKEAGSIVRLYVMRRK
Chain of LAP2, Q96RT1 (Q96RT1 other isoform, or with tags, fused parts or gaps): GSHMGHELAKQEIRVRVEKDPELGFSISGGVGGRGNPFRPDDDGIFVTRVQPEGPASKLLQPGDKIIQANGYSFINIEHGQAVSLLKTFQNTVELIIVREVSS
Chain of GRIP2_5, Q9C0E4 (Q9C0E4 544-642): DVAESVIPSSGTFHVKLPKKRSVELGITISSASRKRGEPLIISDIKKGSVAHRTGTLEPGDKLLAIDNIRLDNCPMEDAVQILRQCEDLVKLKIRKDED
Chain of MAGI1_1, Q96QZ7 (Q96QZ7 1-106): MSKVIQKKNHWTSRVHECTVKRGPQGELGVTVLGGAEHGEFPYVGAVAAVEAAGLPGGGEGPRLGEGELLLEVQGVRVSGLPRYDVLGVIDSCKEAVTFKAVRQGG
Chain of SCRIB_2, Q14160 (Q14160 857-960): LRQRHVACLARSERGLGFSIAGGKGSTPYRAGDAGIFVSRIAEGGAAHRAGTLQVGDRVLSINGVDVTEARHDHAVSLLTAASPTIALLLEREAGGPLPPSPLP
Chain of NHERF2_2, Q15599 (Q15599 142-238): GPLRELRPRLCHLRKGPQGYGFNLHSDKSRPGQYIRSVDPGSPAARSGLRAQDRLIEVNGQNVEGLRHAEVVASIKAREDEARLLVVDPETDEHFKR

## ADENEQVSAV [RAPGEF6, Q8TEU7]
SIPA1L2, Q9P2F8; [1]
  pKd: below the threshold
GRIP1_5, Q9Y3R0; [1]
  pKd: below the threshold
NHERF3_1, Q5T2W1; [1]
  pKd: 3.53
Inadl_1, Q8NI35; [1]
  pKd: below the threshold
Inadl_2, Q8NI35; [1]
  pKd: below the threshold
DLG2_2, Q15700; [1]
  pKd: 3.57
PDLIM1, O00151; [1]
  pKd: below the threshold
IL16_3, Q14005; [1]
  pKd: below the threshold
SCRIB_2, Q14160; [1]
  pKd: below the threshold
NHERF2_2, Q15599; [1]
  pKd: below the threshold
DLG2_3, Q15700; [1]
  pKd: 3.63
APBA3_1, O96018; [1]
  pKd: below the threshold
DLG4_1, P78352; [1]
  pKd: 3.6
GRIP1_4, Q9Y3R0; [1]
  pKd: below the threshold
LAP2, Q96RT1; [1]
  pKd: below the threshold
TIAM2, Q8IVF5; [1]
  pKd: below the threshold
Inadl_8, Q8NI35; [1]
  pKd: 3.86
DVL3, Q92997; [1]
  pKd: below the threshold
LIN7C, Q9NUP9; [1]
  pKd: below the threshold
GRIP2_5, Q9C0E4; [1]
  pKd: below the threshold
MAGI1_1, Q96QZ7; [1]
  pKd: below the threshold
MAGI3_2, Q5TCQ9; [1]
  pKd: 3.61
MPDZ_5, O75970; [1]
  pKd: below the threshold
GRIP1_3, Q9Y3R0; [1]
  pKd: below the threshold
MPDZ_12, O75970; [1]
  pKd: below the threshold
GRIP2_4, Q9C0E4; [1]
  pKd: below the threshold

## SAPATLSSRA [PDLIM2, Q96JY6]
SIPA1L2, Q9P2F8; [1]
  pKd: below the threshold
GRIP1_5, Q9Y3R0; [1]
  pKd: below the threshold
NHERF3_1, Q5T2W1; [1]
  pKd: below the threshold
Inadl_1, Q8NI35; [1]
  pKd: below the threshold
Inadl_2, Q8NI35; [1]
  pKd: below the threshold
DLG2_2, Q15700; [1]
  pKd: below the threshold
PDLIM1, O00151; [1]
  pKd: below the threshold
IL16_3, Q14005; [1]
  pKd: below the threshold
SCRIB_2, Q14160; [1]
  pKd: below the threshold
NHERF2_2, Q15599; [1]
  pKd: below the threshold
DLG2_3, Q15700; [1]
  pKd: below the threshold
APBA3_1, O96018; [1]
  pKd: below the threshold
DLG4_1, P78352; [1]
  pKd: below the threshold
GRIP1_4, Q9Y3R0; [1]
  pKd: below the threshold
LAP2, Q96RT1; [1]
  pKd: below the threshold
TIAM2, Q8IVF5; [1]
  pKd: below the threshold
Inadl_8, Q8NI35; [1]
  pKd: below the threshold
DVL3, Q92997; [1]
  pKd: below the threshold
LIN7C, Q9NUP9; [1]
  pKd: below the threshold
GRIP2_5, Q9C0E4; [1]
  pKd: below the threshold
MAGI1_1, Q96QZ7; [1]
  pKd: below the threshold
MAGI3_2, Q5TCQ9; [1]
  pKd: below the threshold
MPDZ_5, O75970; [1]
  pKd: below the threshold
GRIP1_3, Q9Y3R0; [1]
  pKd: below the threshold
MPDZ_12, O75970; [1]
  pKd: below the threshold
GRIP2_4, Q9C0E4; [1]
  pKd: below the threshold

## SRSRRRETAL [HPV33-E6, P06427]
SIPA1L2, Q9P2F8; [2]
  pKd: below the threshold
GRIP1_5, Q9Y3R0; [2]
  pKd: below the threshold
NHERF3_1, Q5T2W1; [2]
  pKd: 5.49
Inadl_1, Q8NI35; [2]
  pKd: below the threshold
Inadl_2, Q8NI35; [2]
  pKd: below the threshold
DLG2_2, Q15700; [2]
  pKd: 4.57
PDLIM1, O00151; [2]
  pKd: below the threshold
IL16_3, Q14005; [2]
  pKd: below the threshold
SCRIB_2, Q14160; [2]
  pKd: 4.61
NHERF2_2, Q15599; [2]
  pKd: 3.97
DLG2_3, Q15700; [2]
  pKd: 5.23
APBA3_1, O96018; [2]
  pKd: below the threshold
DLG4_1, P78352; [2]
  pKd: 4.57
GRIP1_4, Q9Y3R0; [2]
  pKd: below the threshold
LAP2, Q96RT1; [2]
  pKd: below the threshold
TIAM2, Q8IVF5; [2]
  pKd: below the threshold
Inadl_8, Q8NI35; [2]
  pKd: below the threshold
DVL3, Q92997; [2]
  pKd: below the threshold
LIN7C, Q9NUP9; [2]
  pKd: 4.14
GRIP2_5, Q9C0E4; [2]
  pKd: below the threshold
MAGI1_1, Q96QZ7; [2]
  pKd: below the threshold
MAGI3_2, Q5TCQ9; [2]
  pKd: 5.39
MPDZ_5, O75970; [2]
  pKd: below the threshold
GRIP1_3, Q9Y3R0; [2]
  pKd: below the threshold
MPDZ_12, O75970; [2]
  pKd: below the threshold
GRIP2_4, Q9C0E4; [2]
  pKd: below the threshold

## SGGKRKETLV [NET1, Q7Z628]
SIPA1L2, Q9P2F8; [2]
  pKd: below the threshold
GRIP1_5, Q9Y3R0; [2]
  pKd: below the threshold
NHERF3_1, Q5T2W1; [2]
  pKd: 4.35
Inadl_1, Q8NI35; [2]
  pKd: below the threshold
Inadl_2, Q8NI35; [2]
  pKd: below the threshold
DLG2_2, Q15700; [2]
  pKd: 5.26
PDLIM1, O00151; [2]
  pKd: below the threshold
IL16_3, Q14005; [2]
  pKd: below the threshold
SCRIB_2, Q14160; [2]
  pKd: 3.54
NHERF2_2, Q15599; [2]
  pKd: below the threshold
DLG2_3, Q15700; [2]
  pKd: 5.21
APBA3_1, O96018; [2]
  pKd: below the threshold
DLG4_1, P78352; [2]
  pKd: 5.21
GRIP1_4, Q9Y3R0; [2]
  pKd: below the threshold
LAP2, Q96RT1; [2]
  pKd: below the threshold
TIAM2, Q8IVF5; [2]
  pKd: below the threshold
Inadl_8, Q8NI35; [2]
  pKd: 3.63
DVL3, Q92997; [2]
  pKd: below the threshold
LIN7C, Q9NUP9; [2]
  pKd: 4.4
GRIP2_5, Q9C0E4; [2]
  pKd: below the threshold
MAGI1_1, Q96QZ7; [2]
  pKd: below the threshold
MAGI3_2, Q5TCQ9; [2]
  pKd: 5.92
MPDZ_5, O75970; [2]
  pKd: below the threshold
GRIP1_3, Q9Y3R0; [2]
  pKd: below the threshold
MPDZ_12, O75970; [2]
  pKd: below the threshold
GRIP2_4, Q9C0E4; [2]
  pKd: below the threshold

## FVETQHQTQV [FAT3, Q8TDW7]
SIPA1L2, Q9P2F8; [2]
  pKd: below the threshold
GRIP1_5, Q9Y3R0; [2]
  pKd: below the threshold
NHERF3_1, Q5T2W1; [2]
  pKd: 4.72
Inadl_1, Q8NI35; [2]
  pKd: below the threshold
Inadl_2, Q8NI35; [2]
  pKd: 3.56
DLG2_2, Q15700; [2]
  pKd: 4.5
PDLIM1, O00151; [2]
  pKd: below the threshold
IL16_3, Q14005; [2]
  pKd: below the threshold
SCRIB_2, Q14160; [2]
  pKd: 4.15
NHERF2_2, Q15599; [2]
  pKd: below the threshold
DLG2_3, Q15700; [2]
  pKd: 3.59
APBA3_1, O96018; [2]
  pKd: below the threshold
DLG4_1, P78352; [2]
  pKd: 4.36
GRIP1_4, Q9Y3R0; [2]
  pKd: below the threshold
LAP2, Q96RT1; [2]
  pKd: 3.65
TIAM2, Q8IVF5; [2]
  pKd: below the threshold
Inadl_8, Q8NI35; [2]
  pKd: below the threshold
DVL3, Q92997; [2]
  pKd: 3.65
LIN7C, Q9NUP9; [2]
  pKd: below the threshold
GRIP2_5, Q9C0E4; [2]
  pKd: below the threshold
MAGI1_1, Q96QZ7; [2]
  pKd: below the threshold
MAGI3_2, Q5TCQ9; [2]
  pKd: 4.57
MPDZ_5, O75970; [2]
  pKd: below the threshold
GRIP1_3, Q9Y3R0; [2]
  pKd: 3.62
MPDZ_12, O75970; [2]
  pKd: below the threshold
GRIP2_4, Q9C0E4; [2]
  pKd: below the threshold

— paper PMC9482650, “Quantitative fragmentomics allow affinity mapping of interactomes” (Nature Communications, 2022)
